# Test results published in patent US20250154240A1, “ANTI-HUMAN CXCL1 ANTIBODY” (CHIOME BIOSCIENCE INC., priority 2022, published 2025).
# Tests used:
# [1] = system: CXCR2-expressing cells; assay: In vivo CXCR2-expressing cell migration inhibitory activity, treatment model with OCUM-12 orthotopic transplantation; parameters: species or system mouse
# Excerpt: The stomachs after measurement were excised and fixed overnight at room temperature with a 10% neutral buffered formalin solution (Wako Pure Chemical Industries, Ltd., Japan), followed by replacement with PBS. Then, paraffin embedding and section preparation were outsourced to Applied Medical Research Laboratory, Japan. The prepared gastric tumor sections were immunohistologically stained with an anti-CXCR2 antibody to evaluate in vivo CXCR2 cell migration inhibitory activity. The sections were deparaffinized and rehydrated, and then treated to inactivate endogenous peroxidase. After antigen activation treatment, the sections were blocked with PBS containing 2% skimmed milk and 0.1% Tween-20 (hereinafter referred to as the blocking solution), and reacted overnight at 4° C. with an anti-CXCR2 antibody (Biorbyt) as a primary antibody, which had been diluted 1667-fold with the blocking solution. After washing with PBS containing 0.1% Tween-20, the sections were reacted at room temperature for 1 hour with an HRP-labeled goat anti-rabbit IgG antibody (Abcam) as a secondary antibody. […]
# (§1) The dose-response relationship between antibody dose and in vivo antitumor activity or CXCR2 migration inhibitory activity was evaluated in a xenograft treatment model with OCUM-12 orthotopic transplantation. […] After 4 weeks had passed from the transplantation, the mice were sacrificed and evaluated.
# [2] = target: T1, HuCXCL2 (Homo sapiens, UniProt P19875); assay: FACS, inhibition of binding of APC-labeled HuCXCL2 to HEK293 cells forced to express HuCXCR2; format: cell-based; details: APC-labeled ligand 10 μg/mL; HEK293 cells expressing HuCXCR2
# T1 construct: purchased PROTEINTECH
# T1 sequence (P19875 35-107): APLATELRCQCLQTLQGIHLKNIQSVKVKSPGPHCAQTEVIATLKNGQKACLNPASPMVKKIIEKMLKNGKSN
# Procedure: Chemokines are stabilized by directly binding to GAG on the cell surface and thereby allow efficient signal transduction to their receptors. […] Then, to evaluate whether Hu5A-5E11 inhibits the binding of CXCLs to cells, the binding of fluorescently labeled CXCLs to cells was measured as fluorescence intensity by flow cytometry in FACS. For this purpose, HEK293 cells forced to express HuCXCR2 were used. For use as HuCXCL1, 2, 3 and 5 and MsCXCL1, the proteins in above were labeled with APC.
# The cultured cells were detached and washed with PBS, and then suspended at 5.0× 10^5 cells/mL in PBS containing 1% BSA (hereinafter referred to as the FACS buffer). Each of the APC-labeled ligands and Hu5A-5E11 were mixed at final concentrations of 10 μg/mL and 16.7 μg/mL, respectively, and reacted at room temperature for 30 minutes, and then added to the cell suspension and reacted on ice for 30 minutes. After washing with the FACS buffer, the cells were suspended again in PBS containing 1% 7-AAD, 0.5% BSA and 2 mM EDTA, followed by the above flow cytometry to measure fluorescence intensity.
# [3] = system: OCUM-12 gastric cancer cell line; assay: Antitumor activity, treatment model with OCUM-12 orthotopic transplantation; format: in vivo, mouse; details: compared to PBS
# Procedure: OCUM-12 cells were cultured in D-MED medium (FUJIFILM Wako Pure Chemical Corporation, Japan) supplemented with 10% fetal bovine serum (hereinafter abbreviated as FBS; Sigma-Aldrich Corporation) and 1/100 volumes of a penicillin-streptomycin mixture (Nacalai Tesque, Inc., Japan). The cells to be transplanted were detached with 0.25% trypsin/0.02% EDTA (Thermo Fisher Scientific) and washed with PBS, and 4×10^5 cells per mouse were transplanted into the gastric wall of each mouse. On the day following the transplantation, the mice were randomized into groups (8 mice per group) and intraperitoneally administered with test antibodies at a dose of 400 μg/head. […] After 3 weeks had passed from the transplantation, the mice were sacrificed, and the short- and long-axis diameters of tumors formed in their gastric walls were each measured with a caliper. The tumor size was calculated according to the following: 1/2 short-axis diameter (mm)×1/2 long-axis diameter (mm)×3.14. […]
# as §1
# [4] = target: T1, HuCXCL2; assay: ELISA, inhibition of binding of HuCXCL2 to GAG (heparin, heparan sulfate); format: biochemical; details: antibody 0 to 10 μg/mL; biotin-labeled heparin or heparan sulfate 10 μg/mL
# Procedure: Thus, the effect of Hu5A-5E11 on the binding of CXCLs to GAG was evaluated by ELISA assay using plates on which the antigen (HuCXCL1 protein) used for immunization or HuCXCL2, 3 and 5 and MsCXCL1 and 2 proteins had been directly immobilized. CXCLs other than HuCXCL1 were purchased from PROTEINTECH and used. Biotin-labeled heparan sulfate and heparin were purchased from PG Research and used.
# To 96-well plates, phosphate-buffered saline (PBS) containing 3 μg/mL of HuCXCL1, 2, 3 or 5 or MsCXCL1 or 10 μg/mL of MsCXCL2 was added in a volume of 50 μL per well, and the plates were allowed to stand overnight at 4° C. After removal of the antigen solutions, PBS containing 0.05% Tween-20 (hereinafter referred to as the blocking solution) was added to each well for blocking reaction, and the plates were allowed to stand at room temperature for 30 minutes. […] TMB (Dako) was added as a chromogenic substrate solution to cause color development, and 1 N sulfuric acid was added to stop the reaction, followed by measurement of absorbance at 450 nm. The binding rate of CXCLs to GAG was calculated as a ratio relative to the absorbance measured in the absence of the antibody, which was set to 100%.
molecule,measurement,setting,value
"Hu5A-5E11: humanized antibody VH1/VL1; VH SEQ ID NO: 76, VL SEQ ID NO: 78 (antibody, V domains shown) VH: QVQLVQSGAEVKKPGSSVKVSCKASGYAFSDYWMNWVRQAPGQGLEWIGQIYPGSGDTNYNAKFKGKGTITADKSTSTAYMELSSLRSEDTAVYYCARERDYDVAMDYWGQGTTVTVSS VL: DIQMTQSPSSLSASVGDRVTITCKASQDINKYIAWFQQKPGKAPKLVIHYTSILQPGVPSRFSGSGSGTDYTFTISSLQPEDIATYYCLQYDNLPWTFGGGTKVEIK",Dose at which the migration suppressive effect tended to reach a plateau,[1],≥ 60 μg/head
same,Inhibitory activity against the binding of HuCXCL2 to cells (fluorescence intensity),[2],reduce the fluorescence intensity of the cells in an antibody concentration-dependent manner
same,Dose significantly suppressing the tumor area,[3],≥ 60 μg/head
same,Inhibitory activity against the binding of HuCXCL2 to GAG,[4],"inhibit the binding of HuCXCL1, 2, 3 and 5 and MsCXCL1 to GAG in an antibody concentration-dependent manner"
